Measured values from patent US20230192818A1.
“And” between values parts separate entries of the source, which are not always exact repeats. Equal entries are not always repeated.

Legend:
[1] = target: FCGR1 (UniProt P12314)
[2] = target: FcRn (UniProt P55899)
[3] = target: FCGR 2b/c (UniProt P31994)
[4] = target: FCGR 3a (V 176) (UniProt P08637)
[5] = target: FCGR 3a (F 176) (UniProt P08637)
[6] = target: FCGR 2a (H 167) (UniProt P12318)

FCGR 3a (F 176), sequence (P08637 17-208 limits assumed): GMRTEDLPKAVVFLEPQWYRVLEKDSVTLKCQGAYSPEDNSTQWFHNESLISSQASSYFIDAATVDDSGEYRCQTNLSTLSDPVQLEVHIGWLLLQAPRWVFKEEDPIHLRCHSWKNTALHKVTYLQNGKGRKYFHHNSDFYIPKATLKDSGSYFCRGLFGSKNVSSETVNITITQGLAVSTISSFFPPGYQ
FCGR 2b/c, sequence (P31994 46-217 limits assumed): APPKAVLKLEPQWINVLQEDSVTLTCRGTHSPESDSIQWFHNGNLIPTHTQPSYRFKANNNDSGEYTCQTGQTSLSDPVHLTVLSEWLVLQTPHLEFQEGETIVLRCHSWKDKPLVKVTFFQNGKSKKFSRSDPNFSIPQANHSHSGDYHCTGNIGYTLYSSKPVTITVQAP
FCGR1, sequence (P12314 16-288 limits assumed): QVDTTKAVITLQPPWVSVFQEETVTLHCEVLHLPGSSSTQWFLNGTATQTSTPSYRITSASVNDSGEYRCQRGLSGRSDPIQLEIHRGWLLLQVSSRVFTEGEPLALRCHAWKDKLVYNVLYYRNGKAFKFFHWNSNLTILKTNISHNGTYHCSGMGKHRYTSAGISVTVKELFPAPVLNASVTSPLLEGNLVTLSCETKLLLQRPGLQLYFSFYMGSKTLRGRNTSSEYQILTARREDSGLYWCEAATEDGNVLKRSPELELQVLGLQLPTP
FCGR 3a (V 176), sequence (P08637 17-208 F176V limits assumed): as the sequence (P08637 17-208 limits assumed) above, with F160V counted along it

Kd [1]: 0.46 nM | koff [1]: 0.000245 s⁻¹ | Kd [2]: 81.1 nM and 86.5 nM | Kd [3]: 1360 nM and 1590 nM | Kd [4]: 161 nM and 210 nM | Kd [5]: 1110 nM and 796 nM | Kd [6]: 462 nM and 537 nM
Substance: human IgG1 isotype control (antibody)
